± gives the uncertainty stated by the source.

The record followed here is the supplement of paper PMC7877785.

This data set in a line: self-splicing fitness, log relative to wild type (ln ratio); higher = more splicing; Tetrahymena group I intron in knt gene, E. coli kanamycin selection, DiMSum; sequences stand for … in CUCUCU…GGAGGGAAAAGUUAUCAGGCAUGCACCUGGUAGCUAGUCUUUAAACCAAUAGAUUGCAUCGGUUUAAAAGGCAAGACCGUCAAAUUGCGGGAAAGGGGUCAACAGCCGUUCAGUACCAAGUCUCAGGGGAAACUUUGAGAUGGCCUUGCAAAGGGUAUGGUAAUAAGCUGACGGACAUGGUCCUAACCACGCAGCCAAGUCCUAAGUCAACAGAUCUUCUGUUGAUAUGGAUGCAGUUCACAGACUAAAUGUCGGUCGGGGAAGAUGUAUUCUUCUCAUAAGAUAUAGUCGGACCUCUCCUUAAUGGGAGCUAGCGGAUGAAGUGAUGCAACACUGGAGCCGCUGGGAACUAAUUUGUAUGCGAAAGUAUAUUGAUUAGUUUUGGAGUACUCGUGGUCG
Put shortly:
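DiMSum derived fitness as the error-weighted combination of fold changes across replicates, kanamycin versus no kanamycin, normalised to wild type. E. coli BL21(DE3) held the library, which randomised all eight P1ex-region intron nucleotides within the knt kanamycin-resistance gene on pET-22b(+). Six replicate transformations grew overnight at 37°C or 30°C on LB agar with or without 25 μg/mL kanamycin, also containing 100 μg/mL carbenicillin, 50 μM IPTG and 0.2% rhamnose, and pooled colonies were amplicon-sequenced on an Illumina HiSeq 2500.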

Take CCAUAGCAAUAUUACGCAUC: the “self-splicing fitness (ln)” value (30 °C) is -3.39 ± 0.27 and the “self-splicing fitness (ln)” value (37 °C) was -2.31 ± 0.3.

For the sequence GACUAGCAAUAUUACGUCAA, the “self-splicing fitness (ln)” value (30 °C) is -2.55 ± 0.16 and the “self-splicing fitness (ln)” value (37 °C) was -2 ± 0.12.

As for CGUAAGCAAUAUUACGGCUU, the “self-splicing fitness (ln)” value is -3.69 ± 0.21 (30 °C) and -2.02 ± 0.25 (37 °C).

Consider UAGCAGCAAUAUUACGUCGU, for which the “self-splicing fitness (ln)” value runs as follows: (30 °C) -3.4 ± 0.14; (37 °C) -1.97 ± 0.12.

Regarding AACAAGCAAUAUUACGCGGA, the “self-splicing fitness (ln)” value (30 °C) is -2.07 ± 0.099 and the “self-splicing fitness (ln)” value (37 °C) was -0.961 ± 0.078.

For GGUUAGCAAUAUUACGCUUA, the “self-splicing fitness (ln)” value runs as follows: (30 °C) -1.58 ± 0.13; (37 °C) -0.641 ± 0.12.

Regarding GGACAGCAAUAUUACGCGUA, the “self-splicing fitness (ln)” value runs as follows: (30 °C) -0.744 ± 0.065; (37 °C) -0.68 ± 0.073.

Consider ACUUAGCAAUAUUACGGAAC, for which the “self-splicing fitness (ln)” value was -3.24 ± 0.19 (30 °C) and -1.07 ± 0.34 (37 °C).

Take AAGAAGCAAUAUUACGGAUC: the “self-splicing fitness (ln)” value (30 °C) is -1.23 ± 0.11 and the “self-splicing fitness (ln)” value (37 °C) was 0.142 ± 0.17.

In the case of UUCCAGCAAUAUUACGGCAC, the “self-splicing fitness (ln)” value runs as follows: (30 °C) -2.78 ± 0.21; (37 °C) -0.351 ± 0.2.

Take UCCAAGCAAUAUUACGGCGC: the “self-splicing fitness (ln)” value was -2.4 ± 0.14 (30 °C) and -2.5 ± 0.15 (37 °C).

Take AGCAAGCAAUAUUACGAGCG: the “self-splicing fitness (ln)” value was 0.283 ± 0.061 (30 °C) and -0.223 ± 0.076 (37 °C).

AAGGAGCAAUAUUACGAUGU: the “self-splicing fitness (ln)” value is, setting by setting: (30 °C) -2.12 ± 0.14; (37 °C) -2.28 ± 0.23.

For the sequence UCCCAGCAAUAUUACGCACA, the “self-splicing fitness (ln)” value reads like this: (30 °C) -1 ± 0.071; (37 °C) -0.318 ± 0.095.

On to ACUGAGCAAUAUUACGUUCA, for which the “self-splicing fitness (ln)” value runs as follows: (30 °C) -3.87 ± 0.28; (37 °C) -1.55 ± 0.2.

Consider AUCCAGCAAUAUUACGCGAC, for which the “self-splicing fitness (ln)” value is -2.56 ± 0.14 (30 °C) and -1.86 ± 0.18 (37 °C).

With GCAUAGCAAUAUUACGAGAC, the “self-splicing fitness (ln)” value (30 °C) was -2.7 ± 0.32 and the “self-splicing fitness (ln)” value (37 °C) is -1.59 ± 0.23.

As for GUAUAGCAAUAUUACGAUUC, the “self-splicing fitness (ln)” value is, setting by setting: (30 °C) 0.127 ± 0.1; (37 °C) 0.598 ± 0.13.

Turning to UUACAGCAAUAUUACGCCGA, the “self-splicing fitness (ln)” value reads like this: (30 °C) -1.29 ± 0.2; (37 °C) -0.354 ± 0.22.

For the sequence ACGGAGCAAUAUUACGAAAC, for the setting “37 °C”, the “self-splicing fitness (ln)” value was -1.46 ± 0.31.

In the case of GCCCAGCAAUAUUACGACUG, the “self-splicing fitness (ln)” value is -4.23 ± 0.22 (30 °C) and -2.44 ± 0.19 (37 °C).

For GUAGAGCAAUAUUACGUUAU, the “self-splicing fitness (ln)” value reads like this: (30 °C) -1.68 ± 0.086; (37 °C) -0.698 ± 0.091.

Consider AGCAAGCAAUAUUACGACGA, for which the “self-splicing fitness (ln)” value by setting is: (30 °C) -0.884 ± 0.14; (37 °C) -0.398 ± 0.16.

Take CCUGAGCAAUAUUACGGGAA: the “self-splicing fitness (ln)” value by setting is: (30 °C) -2.46 ± 0.27; (37 °C) -0.571 ± 0.29.

On to UCUGAGCAAUAUUACGAGCU, for which the “self-splicing fitness (ln)” value (30 °C) was -2.99 ± 0.24 and the “self-splicing fitness (ln)” value (37 °C) was -2.23 ± 0.47.

With AGAGAGCAAUAUUACGUAUC, the “self-splicing fitness (ln)” value (37 °C) was -2.03 ± 0.17.

GAAGAGCAAUAUUACGGUUA: the “self-splicing fitness (ln)” value (30 °C) is -1.49 ± 0.19 and the “self-splicing fitness (ln)” value (37 °C) is -1.27 ± 0.23.

Turning to UCAUAGCAAUAUUACGUUGA, the “self-splicing fitness (ln)” value by setting is: (30 °C) -3.91 ± 0.29; (37 °C) -2.75 ± 0.16.

Take GCGGAGCAAUAUUACGAUCG: the “self-splicing fitness (ln)” value (30 °C) is -0.357 ± 0.25 and the “self-splicing fitness (ln)” value (37 °C) was -1.12 ± 0.3.

With UUGCAGCAAUAUUACGCACU, the “self-splicing fitness (ln)” value is, setting by setting: (30 °C) -1.6 ± 0.13; (37 °C) -1.15 ± 0.13.

Regarding AGAUAGCAAUAUUACGGGGA, the “self-splicing fitness (ln)” value by setting is: (30 °C) -3.46 ± 0.31; (37 °C) -3.05 ± 0.35.

With CAGGAGCAAUAUUACGUUAA, the “self-splicing fitness (ln)” value is -3.28 ± 0.43 (30 °C) and -2.66 ± 0.26 (37 °C).

For the sequence CGUAAGCAAUAUUACGGCUG, the “self-splicing fitness (ln)” value is -0.231 ± 0.062 (30 °C) and -0.177 ± 0.095 (37 °C).

With GGCAAGCAAUAUUACGGGCU, the “self-splicing fitness (ln)” value by setting is: (30 °C) -2.53 ± 0.2; (37 °C) -2.48 ± 0.2.

Consider CAGUAGCAAUAUUACGGACC, for which, where the note is “30 °C”, the “self-splicing fitness (ln)” value was -2.15 ± 0.36.

As to UCUGAGCAAUAUUACGCGCA, where the note is “30 °C”, the “self-splicing fitness (ln)” value is -2.16 ± 0.3.

On to UUCAAGCAAUAUUACGAAGU, for which the “self-splicing fitness (ln)” value is -3.76 ± 0.37 (30 °C) and -0.849 ± 0.23 (37 °C).

As for AUAAAGCAAUAUUACGAUAA, the “self-splicing fitness (ln)” value (30 °C) is -0.405 ± 0.079 and the “self-splicing fitness (ln)” value (37 °C) was -0.094 ± 0.094.

For AAUGAGCAAUAUUACGUCAU, the “self-splicing fitness (ln)” value (30 °C) is -2.26 ± 0.2 and the “self-splicing fitness (ln)” value (37 °C) is -1.02 ± 0.18.
